# The supplement of paper PMC9170038
# Test system: MS2 coat protein
# Assay: apparent KD of MS2 coat protein; designed switch direction (-1 OFF switch, 1 ON switch): 1; higher = weaker reporter binding
# How it was run: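 RNA switches sharing common flanks were transcribed by stalled E. coli RNA polymerase on Illumina chips. A doubling series of SNAP-549-labelled MS2 coat protein, from 0.7 or 1.5 nM to 3 µM, was applied in Tris-HCl pH 7.5 buffer with KCl, MgCl2, BSA, DTT, tRNA and Tween-20. Each step lasted 0.8–1.5 h at the bottom of the series and 10–20 min at the top. Normalised cluster fluorescence was curve-fitted, giving apparent KD as the per-design median over clusters.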
# [1] = input ligand: microRNA oligo, concentration not stated
# [2] = Eterna round: R95, input ligand: FMN 200 uM
# [3] = Eterna round: R95, input ligand: microRNA oligo, concentration not stated
# [4] = Eterna round: R95, input ligand: none
Sequence,apparent KD of MS2 coat protein (input ligand: FMN 200 uM) [nM],apparent KD of MS2 coat protein [1] [nM],apparent KD of MS2 coat protein (input ligand: none) [nM],apparent KD of MS2 coat protein [2] [nM],apparent KD of MS2 coat protein [3] [nM],apparent KD of MS2 coat protein [4] [nM]
"GCUACCAAAGAAGCCAACAUGAGGAUCACCCAUGUAUGUUGGCAGGAUAUCGUUUGCAAAGCGAACGAGAAGGGCUAAGGUAGC [Mat - Same State NG 3 - JL Mod - D89] (Eterna round: R96, puzzle: Same State NG 3)",197,116,231,–,–,–
"CGAUACACGGCAGGAUAUCGAUUCCAAAGGAAUCGAGAAGGGCCUCAUGUCGUGGAAACGUGACAUGAGGAUCACCCAUGUUGC [Omei SS(NG)1 Cv20] (Eterna round: R96, puzzle: Same State NG 1)",84.4,36.1,55.4,–,–,–
"GCGCUCCAAGGAGCUGCGACAUGAGGAUCACCCAUGUAAUCACAGGAUAUGCGAUUCCGAAUUUUGCAGAAGGGUGAUAAGAAC [Asorila] (Eterna round: R96, puzzle: Same State NG 3)",482,491,241,–,–,–
"GCGAGCGUACUUGCUACAUGAGGAUCACCCAUGUUUCAUGGACAGGAUAUGGUACCGUUUCGGUACCAGAAGGGUUCACAUGUA [JL SSNG3 3.80] (Eterna round: R96, puzzle: Same State NG 3)",155,98.8,315,–,–,–
"GGAUGAUAGACAGGAUAUUGAAUGUAAAUAGGACAAGAAGGGUCAAUGAUUUAAACGACCAGUUACAUGAGGAUCACCCAUGUU [JR_SSNG1_Sub024] (Eterna round: R96, puzzle: Same State NG 1)",29.4,36.7,36.6,–,–,–
"GUUACAUGAGGAUCACCCAUGUAUGUGUGGGAGUAAGUGUCUUAGGAUAUCUAUUAAUUAAAUUAAGAGAAGGAAGAUUGUUGU [JMF's solution 14] (Eterna round: R96, puzzle: Same State NG 3)",127,83.7,112,–,–,–
"ACAUUUAGCUCGUGCACAUGAGGAUCACCCAUGUUCGGUUCACAGGAUAUCUAGUCAAACGGAUUGGAGAAGGGUGGCAGGAGC [Gelegees] (Eterna round: R96, puzzle: Same State NG 3)",35.7,128,215,–,–,–
GGAGCCGGCACGGAGGAUAUUCAUAUUAAAACAUGAGGAUCACCCAUGUAGGCCAGAAGGCCUUGGGAGAAGGCCGAUCGGCUCG [Xeonanis - 15] (puzzle: Same State 2),–,–,–,21.9,306,409
"GGUAGGUUACUACCAUACAUGAGGAUCACCCAUGUAAAUGGGAAGGAUAUGGUACCUAUUUGGUACCAGAAGGUCCAAAUAAUU [Mat - Same State NG 3 - JL Mod - D96] (Eterna round: R96, puzzle: Same State NG 3)",156,645,1170,–,–,–
GUAUAACAUGAGGAUCACCCAUGUCAUCUAAGUCGAGGAUAUGGGCAAAUAAUAUAAGAACCAGAAGGCGAAUAUG [Mat - Same State 1 - Mod of UCT - D35] (puzzle: Same State 1),–,–,–,61.8,122,359
GGAGCCGGCAGGCAGGAUAUUCAUAUUAAAACAUGAGGAUCACCCAUGUAGGCCAGAAGGCCUUGGGAGAAGGGCCAUCGGCUCG [Xeonanis - 13] (puzzle: Same State 2),–,–,–,27.8,225,569
"CGGGACAUGAGGAUCACCCAUGUGCCGAAAGGCACAAGAACGCAGGAUAUAGGGCAAAGACAGCCCUAGAAGGGUGACCUUGUG [Tiesralabe] (Eterna round: R96, puzzle: Same State NG 3)",197,21.3,117,–,–,–
UUAAAACAUGAGGAUCACCCAUGUCAUCUAAGUCGAGGAUAUGGGAAUUAAUUAAUUAAACCAGAAGGCGAAUAUU [Mat - Same State 1 - D90] (puzzle: Same State 1),–,–,–,38.6,439,543
"AACAUGUGGUGUCACAUGAGGAUCACCCAUGUGGUAAAACCUGAGGAUAUAAAGAAAAAAAUCAAUUAGAAGGUAGGAUCACAA [AK SSNG3-V2-18.1] (Eterna round: R96, puzzle: Same State NG 3)",16.4,26.2,32.5,–,–,–
"UUACAGCACGGGUAGGAUAUGUAGGGUGGUACAUGAGGAUCACCCAUGUAUCCACCCUUCUAACGGCAGAAGGGCCUGUCGCUGC [Riarve] (Eterna round: R96, puzzle: Same State 2)",28.3,11.2,27.5,–,–,–
"UUUGCAUGACGAGGAUAUCAUUUAUUUCUUGAUUGAGAAGGCGUUCUUUUUCCUACCUAACAUGAGGAUCACCCAUGUGACAGU [JR_SSNG1_Sub049] (Eterna round: R96, puzzle: Same State NG 1)",12.7,12,14,–,–,–

Sequence,apparent KD of MS2 coat protein (input ligand: FMN 200 uM) [nM],apparent KD of MS2 coat protein [1] [nM],apparent KD of MS2 coat protein (input ligand: none) [nM],apparent KD of MS2 coat protein [2] [nM],apparent KD of MS2 coat protein [3] [nM],apparent KD of MS2 coat protein [4] [nM]
"UGAAUAGUGAUAGGAUAUACAUGAGGAAUCCUCGUAGAAGGAUCAUAACAUGAGGAUCACCCAUGUAGCCGUCAGAAGACGGCA [Mat - Same State NG 1 - JL mod - D57] (Eterna round: R96, puzzle: Same State NG 1)",94.6,284,178,–,–,–
"GUUACAUGAGGAUCACCCAUGUAUGUGUGGGAGUAAGUGUCUUAGGAUAUCUAGAAUUUAAUUUAAGAGAAGGAAGAUUGUUGU [JMF's solution 49] (Eterna round: R96, puzzle: Same State NG 3)",104,61,83,–,–,–
AUAUAACAUGAGGAUCACCCAUGUCAACAAAGUCGAGGAUAUGGGCAAAUAAAAUAAGAACCAGAAGGCGAAUAAU [salish99_ss1_r3_047] (puzzle: Same State 1),–,–,–,42.2,462,693
UACAAUCUAUCUGAGGAUAUCAUGAUUAUAACAUGAGGAUCACCCAUGUGCAGGAAAACUGCAUAUGAGAAGGCAGAUAGAUUGU [salish99_ss2_r3_069] (puzzle: Same State 2),–,–,–,228,1630,110
"AUUAGACAUGAGGAUCACCCAUGUAGGCAGUCAUGAGGAUAUGGACAAGGUGCUCAAGGUCCAGAAGGCAUACGCC [Maxeus] (Eterna round: R96, puzzle: Same State 1)",12.2,28.3,28,–,–,–
"GGUGCCAAAUAAGCCUACAUGAGGAUCACCCAUGUAUGUAGGCAGGAUAUCGUAUGCAAAGCAUACGAGAAGGGCUGAGGCACC [Mat - Same State NG 3 - JL Mod - D54] (Eterna round: R96, puzzle: Same State NG 3)",25.7,51.6,80.5,–,–,–
"GAGAGAGGGUGAGGAUAUUUAGUGAUAAUGAUAAGAGAAGGCACAGACAUGAGGAUCACCCAUGUGGGAAUAAUCCAGAGAGAG [Parity 8 - Jieux - Same State NG 1] (Eterna round: R96, puzzle: Same State NG 1)",–,167,–,–,–,–
"UGGCUCAGACGAGGAUAUAUGUCUCGAGCUUCGGCUCGAGACAUGAGGAUCACCCAUGUAAUAACAUAGAAGGCGUCUGAGCCU [SSNG2/1-A3] (Eterna round: R96, puzzle: Same State NG 2)",12.6,29,34.3,–,–,–
"GUUACAUGAGGAUCACCCAUGUGUGUGUGGGAGUGAGUGGCUUAGGAUAUCUAUGAUUUUAGUUAAGAGAAGGAGGAUUGUUGU [SS-NG3-LRO06] (Eterna round: R96, puzzle: Same State NG 3)",365,322,380,–,–,–
"CCGGCAAGUAUAGGAUAUCCCGCAACAGAAGCGGGAGAAGGGUGCCAAACAUGAGGAUCACCCAUGUACACCGGAAAUAAAUAA [Veaat] (Eterna round: R96, puzzle: Same State NG 1)",92.9,46.6,30.5,–,–,–
"GUAGCAUACCGAGGAUAUUCAUAUACAUGAGGAUCACCCAUGUUAAUAUAGGCCAAAAGGCCUUGGGAGAAGGCGGAAUGCUAC [Xeonanis - 20 Mod11] (Eterna round: R96, puzzle: Same State NG 2)",9.01,9.83,13.3,–,–,–
GUGGCACAUGAGGAUCACCCAUGUAGGUAGAACAUAGGAUAUCACCAACAAAAUACCUGGUGAGAAGGAUGAUGCC [Zaesleer] (puzzle: Same State 1),–,–,–,–,143,–
"AAUUGUUUCUGAGGAUAUCAGUAGUAUGCCAAUUGAGAAGGCAGUACAUGAGGAUCACCCAUGUUAUGGUUUGAUAGAAUGAUA [JR_SSNG1_Sub001] (Eterna round: R96, puzzle: Same State NG 1)",74.8,51.2,54.1,–,–,–
AGUCCAGCCUGAGCUGGACAAAAGCAUGUACAUGAGGAUCACCCAUGUCAUGUACAAGCUUAUUGCUCGUCUUAAUA [Mat - hsa-mir-208a - Mod of JL - D40] (puzzle: Sensor for hsa-mir-208a),–,–,–,226,16.7,251
GGAGAACAUGAGGAUCACCCAUGUAAGAGAAGUGUAGGAUAUGUGAGGAGCAGAGGAGGAACAGAAGGACAUGGAG [JR_SS!_Sub071] (puzzle: Same State 1),–,–,–,29.8,41,58.3
